Laboratory results reported in patent US20170306017A1 (VACCINEX, published 2017).
Like-named read-outs stand apart in the source and are kept apart here.

B1: MAb 2503 (antibody, V domains shown)
VH: QVQLVQSGAEVKKPGSSVKVSCKASGYSFSDYYMHWVRQAPGQGLEWMGQINPTTGGASYNQKFKGKATITVDKSTSTAYMELSSLRSEDTAVYYCARYYYGRHFDVWGQGTTVTVSS
VL: DIVMTQSPDSLAVSLGERATINCKASQSVDYDGDSYMNWYQQKPGQPPKLLIYAASNLESGVPDRFSGSGSGTDFTLTISSLQAEDVAVYYCQQSNEDPYTFGQGTKLEIK
notes: also called humanized MAb 67; H2160/L553
B2: MAb 76 (antibody, IgG2b, V domains shown)
VH: QVQLQQSGAELAKPGASVKMSCKASGYTFTRYWMHWVKQRPGQGLEWIGYINPSTGYSDYNQKFKDKATLTADKSSSTAYMQLSSLTSEDSAVYYCARDPYGWTMDSWGQGTLVTVSS
VL: DIQMTQSPSSLSASLGDTITITCHASQNINVWLSWYQQKPGNIPKLLIYKASNLHTGVPSRFSGSGSGTGFTLTISSLQPEDIATYYCQQGQSYPYTFGGGTKLEIK
notes: also called clone 76-1; 76-1
B3: MAb 67 (antibody, IgG1, V domains shown)
VH: QVQLQQSGPELVKPGASVKISCKASGYSFSDYYMHWVKQSPENSLEWIGQINPTTGGASYNQKFKGKATLTVDKSSSTAYMQLKSLTSEESAVYYCTRYYYGRHFDVWGQGTTVTVSS
VL: DIVMTQSPASLAVSLGQRATISCKASQSVDYDGDSYMNWYQQKPGQPPKLLIYAASNLESGIPARFSGSGSGTDFTLNIHPVEEEDAATYYCQQSNEDPYTFGGGTKLEIK
notes: also called mouse MAb 67; murine MAb 67

Legend:
mouse CD100 [1] = target: T1, mouse CD100 (mouse, UniProt O09126 24-733, limits assumed); assay: BIACORE surface plasmon resonance
T1 construct: also called murine CD100; muCD100
T1 sequence: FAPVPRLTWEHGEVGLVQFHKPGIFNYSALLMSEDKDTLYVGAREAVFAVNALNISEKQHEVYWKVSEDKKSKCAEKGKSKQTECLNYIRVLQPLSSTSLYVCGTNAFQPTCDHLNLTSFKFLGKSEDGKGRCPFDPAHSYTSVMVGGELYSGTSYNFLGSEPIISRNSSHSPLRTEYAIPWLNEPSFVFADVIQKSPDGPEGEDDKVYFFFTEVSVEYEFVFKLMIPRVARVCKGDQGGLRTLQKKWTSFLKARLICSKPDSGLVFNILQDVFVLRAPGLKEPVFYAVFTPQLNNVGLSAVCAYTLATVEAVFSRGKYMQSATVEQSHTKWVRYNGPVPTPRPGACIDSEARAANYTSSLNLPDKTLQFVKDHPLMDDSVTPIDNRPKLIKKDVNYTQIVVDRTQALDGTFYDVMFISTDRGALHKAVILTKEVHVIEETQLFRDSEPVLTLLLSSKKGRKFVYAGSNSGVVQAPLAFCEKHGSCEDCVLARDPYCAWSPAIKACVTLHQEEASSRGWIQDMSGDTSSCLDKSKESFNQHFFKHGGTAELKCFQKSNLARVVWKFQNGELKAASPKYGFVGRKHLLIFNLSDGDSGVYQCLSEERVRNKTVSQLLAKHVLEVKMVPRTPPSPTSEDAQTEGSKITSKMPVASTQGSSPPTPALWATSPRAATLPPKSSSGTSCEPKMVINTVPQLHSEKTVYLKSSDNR
Protocol: (§1) Binding affinities of anti-CD100 MAbs were determined using BIACORE® surface plasmon resonance technology.

marmoset CD100 = target: T2, marmoset CD100 (marmoset, UniProt A0A8I3W811 22-734); assay: BIACORE surface plasmon resonance
T2 construct: also called marmCD100; monkey CD100
T2 sequence: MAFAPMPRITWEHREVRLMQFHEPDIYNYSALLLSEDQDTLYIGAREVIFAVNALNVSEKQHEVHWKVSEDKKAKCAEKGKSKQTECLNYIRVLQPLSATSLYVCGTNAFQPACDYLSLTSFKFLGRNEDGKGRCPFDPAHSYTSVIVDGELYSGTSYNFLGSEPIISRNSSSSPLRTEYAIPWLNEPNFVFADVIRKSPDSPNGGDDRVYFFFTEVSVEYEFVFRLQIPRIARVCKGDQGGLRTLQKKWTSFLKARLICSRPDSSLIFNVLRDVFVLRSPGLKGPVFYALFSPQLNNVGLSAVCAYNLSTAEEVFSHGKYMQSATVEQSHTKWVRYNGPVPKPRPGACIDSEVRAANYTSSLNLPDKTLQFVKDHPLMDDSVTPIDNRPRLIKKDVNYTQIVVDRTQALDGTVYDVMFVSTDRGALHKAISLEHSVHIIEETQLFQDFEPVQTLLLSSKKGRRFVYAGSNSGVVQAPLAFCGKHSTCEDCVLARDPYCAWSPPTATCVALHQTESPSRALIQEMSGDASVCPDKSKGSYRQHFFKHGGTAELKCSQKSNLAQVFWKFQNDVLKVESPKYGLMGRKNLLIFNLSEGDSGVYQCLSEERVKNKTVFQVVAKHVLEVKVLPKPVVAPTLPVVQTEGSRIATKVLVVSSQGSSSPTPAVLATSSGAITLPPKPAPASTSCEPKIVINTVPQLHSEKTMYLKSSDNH
Protocol: as §1

human CD100 [2] = target: T3, human CD100 (human, UniProt Q92854 22-734, limits assumed); assay: BIACORE surface plasmon resonance
T3 construct: also called huCD100; SEMA4D
T3 sequence: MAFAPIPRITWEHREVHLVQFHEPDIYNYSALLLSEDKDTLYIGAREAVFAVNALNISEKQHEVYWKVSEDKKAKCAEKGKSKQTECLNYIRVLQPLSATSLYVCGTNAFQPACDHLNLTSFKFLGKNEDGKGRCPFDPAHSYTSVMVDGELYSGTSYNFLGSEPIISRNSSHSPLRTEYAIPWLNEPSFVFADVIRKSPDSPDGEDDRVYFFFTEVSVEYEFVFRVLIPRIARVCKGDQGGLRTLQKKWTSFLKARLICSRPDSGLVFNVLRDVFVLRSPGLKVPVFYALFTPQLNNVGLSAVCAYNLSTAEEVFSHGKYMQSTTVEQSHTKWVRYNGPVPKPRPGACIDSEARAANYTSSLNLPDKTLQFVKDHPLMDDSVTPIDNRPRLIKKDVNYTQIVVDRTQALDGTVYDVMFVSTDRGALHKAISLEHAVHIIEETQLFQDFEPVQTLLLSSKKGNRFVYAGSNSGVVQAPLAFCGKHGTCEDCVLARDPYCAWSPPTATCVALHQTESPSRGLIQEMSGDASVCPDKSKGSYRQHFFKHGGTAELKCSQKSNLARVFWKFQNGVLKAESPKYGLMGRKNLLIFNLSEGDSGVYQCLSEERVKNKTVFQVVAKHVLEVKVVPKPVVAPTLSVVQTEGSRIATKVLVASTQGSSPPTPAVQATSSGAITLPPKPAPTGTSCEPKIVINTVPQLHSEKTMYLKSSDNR
Protocol: as §1

human CD100-Fc = target: T4, human CD100-Fc (human, UniProt Q92854 22-734, limits assumed); assay: competition ELISA on plate-coated human CD100-Fc; unlabelled antibody titrated first, competitor biotinylated MAb 67 detected with streptavidin-HRP
T4 sequence: T3 sequence
Protocol: For the ELISA protocol, an ELISA plate was coated with CD100-Fc. […] The antibodies were allowed to bind to CD100 and unbound antibody was wash away. Biotinylated MAb 67 was added. Biotinylated MAb 67 bound to CD100 was detected using Streptavidin-HRP.

mouse CD100 [3] = target: T1, mouse CD100; assay: BIACORE surface plasmon resonance; remark: listed apart in the source
human CD100 [4] = target: T3, human CD100; assay: BIACORE surface plasmon resonance; remark: listed apart in the source

Row | Binder | Kd (mouse CD100 [1]) [nM] | Kd (marmoset CD100) [nM] | Kd (human CD100 [2]) [nM] | IC50 (read off the curve) (human CD100-Fc) [nM] | Kd (mouse CD100 [3]) [nM] | Kd (human CD100 [4]) [nM]
1 | B1 | 1.5 | 2.4 | 5.4 | ~0.2 |  | 
2 | B2 |  |  |  |  | 0.33 | 0.12
3 | B3 |  | 2.7 |  |  |  | 
